In patent US20240141043A1:

Tests used:
[1] = target: murine CD19 (mouse) (UniProt P25918); assay: flow cytometry of mouse peripheral blood, 4hrs after i.v. injection of 50 ug anti-murine CD19-FITC, CD19-FITC in master mix [CONT'D) D]
[2] = target: murine CD19 (mouse) (UniProt P25918); assay: flow cytometry of mouse peripheral blood, Day 1 after i.v. injection of 50 ug anti-murine CD19-FITC, CD19-FITC in master mix [CONT'D) D]
[3] = target: murine CD19 (mouse) (UniProt P25918); assay: flow cytometry of mouse peripheral blood, Day 5 after i.v. injection of 50 ug anti-murine CD19-FITC, CD19-FITC in master mix [CONT'D) D]
[4] = target: murine CD19 (mouse) (UniProt P25918); assay: flow cytometry of mouse peripheral blood, Day 8 after i.v. injection of 50 ug anti-murine CD19-FITC, CD19-FITC in master mix [CONT'D) D]
[5] = target: murine CD19 (mouse) (UniProt P25918); assay: flow cytometry of mouse peripheral blood, 4hrs after i.v. injection of 50 ug anti-murine CD19-FITC, no CD19-FITC in master mix (injected antibody only) [CONT'D) D]
[6] = target: murine CD19 (mouse) (UniProt P25918); assay: flow cytometry of mouse peripheral blood, Day 1 after i.v. injection of 50 ug anti-murine CD19-FITC, no CD19-FITC in master mix (injected antibody only) [CONT'D) D]
[7] = target: murine CD19 (mouse) (UniProt P25918); assay: flow cytometry of mouse peripheral blood, Day 5 after i.v. injection of 50 ug anti-murine CD19-FITC, no CD19-FITC in master mix (injected antibody only) [CONT'D) D]
[8] = target: murine CD19 (mouse) (UniProt P25918); assay: flow cytometry of mouse peripheral blood, Day 8 after i.v. injection of 50 ug anti-murine CD19-FITC, no CD19-FITC in master mix (injected antibody only) [CONT'D) D]

Sequence of murine CD19 (mouse) (P25918 19-547): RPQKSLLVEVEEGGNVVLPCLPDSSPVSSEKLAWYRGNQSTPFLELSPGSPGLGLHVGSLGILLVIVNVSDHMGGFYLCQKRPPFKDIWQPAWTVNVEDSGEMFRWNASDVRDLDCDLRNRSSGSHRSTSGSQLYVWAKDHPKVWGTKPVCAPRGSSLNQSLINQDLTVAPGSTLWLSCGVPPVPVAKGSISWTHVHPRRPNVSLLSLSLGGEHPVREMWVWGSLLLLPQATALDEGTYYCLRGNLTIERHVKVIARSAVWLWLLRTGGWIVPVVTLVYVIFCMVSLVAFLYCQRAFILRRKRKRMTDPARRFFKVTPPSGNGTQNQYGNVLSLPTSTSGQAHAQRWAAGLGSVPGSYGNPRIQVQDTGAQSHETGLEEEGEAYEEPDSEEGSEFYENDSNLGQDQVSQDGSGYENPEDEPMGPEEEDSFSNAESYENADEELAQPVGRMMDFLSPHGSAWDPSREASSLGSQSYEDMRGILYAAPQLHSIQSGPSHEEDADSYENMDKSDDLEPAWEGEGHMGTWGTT

- CD19+CD20+ gate (share of cells in the gate) [1]: 53
- CD19+CD20+ gate (share of cells in the gate) [2]: 52.3
- CD19+CD20+ gate (share of cells in the gate) [3]: 43.6
- CD19+CD20+ gate (share of cells in the gate) [4]: 36.4
- CD19+CD20+ gate (share of cells in the gate) [5]: 52.7
- CD19+CD20+ gate (share of cells in the gate) [6]: 49.1
- CD19+CD20+ gate (share of cells in the gate) [7]: 44
- CD19+CD20+ gate (share of cells in the gate) [8]: 38.3
Substance: anti-murine CD19-FITC antibody (Biolegend; clone 1D3)
